Measured values: patent US20020009436A1, “Methods and compositions for inhibiting adhesion by microorganisms” (priority 1999, published 2002)

Assays:
[1] = system: E. coli possessing type 1 fimbriae; experiment: Adhesion of E. coli to a mannose receptor; format: cell-based; details: E. coli treated with asparaginase versus untreated cells
Protocol: Materials and methods were generally as described in the Examples above, but modified for observing adhesion by E. coli to a mannose receptor. […] The E. coli were then incubated with a source of mannose receptor.

[2] = system: S. sobrinus glucosyltransferase; experiment: Purified S. sobrinus glucosyltransferase treated with asparaginase; format: biochemical
Protocol: Glucosyltransferase activity was detected as described in the art, with some modifications described hereinbelow. Protein samples were mixed with electrophoresis sample buffer and incubated for 1 to 4 h at 37° C. before the gel was run. Nonfixed gels were incubated in 50 mM sodium acetate (pH 5.5) containing 1% vol/vol Triton X-100, 2 % (wt/vol) sucrose, and 0.07% (wt/vol) NaN3 at 37° C. for 24 h. Gels were also incubated in the same buffer with glucan T2000 (2 to 4 mg/ml) or fluorescein isothiocyanate-conjugated glucan T-10 (2 mg/ml) to detect both glucosyltransferases and glucan binding proteins (GBPs). After incubation, the gels were fixed for 30 min in 75% ethanol and rocked on a shaker for 30 min with 0.7% periodic acid in 5% acetic acid. The gels were then shaken for 1 h in 0.2% (wt/vol) sodium metabisulfite in 5% acetic acid. After two additional treatments in sodium metabisulfate and acetic acid, the gels were placed in Schiff's reagent for 0.5 to 1 h. Finally the gels were washed extensively in 45% methanol-45% acetic acid-10% H2O for destaining. In some experiments, purified protein was treated with 100 μg/ml polyphenol oxidase for 1 h, or with asparaginase, before loading on the gel.

[3] = system: type 1-fimbriated and P-fimbriated E. coli; experiment: Growth inhibition of E. coli; format: cell-based
Protocol: Similar and/or art recognized methods were used to monitor the effects of asparaginase on growth of other microbes including two strains of E. coli, S. pyogenes, Klebsiella pneumoniae, Bacillus cereus, and Proteus vulgaris. Both type 1-fimbriated and P-fimbriated E. coli were incubated with polyphenol oxidase, asparaginase, and ampicillin to test the ability of these agents to inhibit the growth of the bacteria.

S. pyogenes [4] = experiment: Adhesion of S. pyogenes to buccal epithelial cells (coaggregation slides); format: cell-based, Streptococcus pyogenes
Protocol: This experiment began with growing and harvesting of five strains of S. pyogenes, including M14 Lowe, YL3, M24 and T2/MR. The strains were grown in BHI broth in a 37 degree incubator overnight. The cultures were grown under static conditions. The cells were then harvested by washing twice with phosphate buffer (pH=7). Treatment of the cells with polyphenol oxidase and asparaginase began with finding the optical density of the stock solution of harvested cells. This was done using a spectrophotometer. Each strain was treated with two concentrations of polyphenol oxidase (100 μg/OD and 300 μg/OD) and one concentration of asparaginase (300 μg/OD). The treatment of the cells with polyphenol oxidase took place in the 37 degree incubator for 1.5 hours. The cells were then washed twice with phosphate buffer (pH 7). At this time, a coaggregation was made and allowed to set at static conditions for two hours. Slides were then made of each coaggregation.
The treatment of the cells with asparaginase also took place in the 37 degree incubator for three hours. Before treatment, the cells were washed twice with phosphate buffer of pH=8. After treatment, they were washed twice with phosphate buffer of pH=7. Coaggregations and slides were then made as for polyphenol oxidase.
The buccal cells were harvested from the inner cheeks using cotton swabs. […]

F. nucleatum = experiment: Hemagglutination assay of periodontopathogens, F. nucleatum; format: cell-based, Fusobacterium nucleatum; parameters: key: + Hemagglutination; − No hemagglutination; details: sheep blood, polyphenol oxidase 90 U/ml or asparaginase 20 U/ml, 90 min
Protocol: The hemagglutinations were carried out in 96 microwell (Nunc) plates in which 50 μl of 1% suspension of sheep blood and 50 μl of serially diluted cells suspension in phosphate buffered (10 mM Na2HPO4, 10 mM KH2PO4, 150 mM NaCl, 3 mM KCl) were added. The cells were adjusted at 1.4 OD at 540 nm. All the strains were treated in NaCl-free buffer with polyphenol oxidase (90 U/ml) or asparaginase (20 U/ml) for 90 min at 37° C. before hemagglutination.

Proteus vulgaris = experiment: Growth inhibition of Proteus vulgaris; format: cell-based
S. pyogenes [5] = system: S. pyogenes
Klebsiella pneumoniae = experiment: Growth inhibition of Klebsiella pneumoniae; format: cell-based
S. pyogenes [6] = experiment: Adhesion of S. pyogenes to human buccal cells (light microscopy counts); format: cell-based, Streptococcus pyogenes
Protocol: Streptococcus pyogenes strains were grown and pure cultures isolated on blood agar plates at 37° C. Each were subsequently inoculated into brain heart infusion (BHI) nutrient broth at 37° C. for continued growth.
The cells of each S. pyogenes strains were then washed with phosphate buffer (pH 7) three times. The optical density (OD) of each stain was measured using a spectrophotometer, and adjusted to 0.8. One ml of each strain was treated with polyphenol oxidase or asparaginase. The controls and enzyme-supplemental cells were incubated for ninety minutes at 37° C. Each were washed three times for ten minutes at 15,000 rpm, and recollected in 0.9 ml phosphate buffer.
Human buccal cells were collected and cleaned in phosphate buffer. The buccal cells and S. pyogenes were combined in a ratio of 3:1 respectively, for each strain and allowed to incubate 30 min. Buccal cells were removed by centrifugation (500×g) and washed three times to reduce streptococcal background. The buccal cell-streptococcal complexes were then smeared on slides. The resulting slides were stained using the Gram method, and viewed under the 100× oil immersion lens. The number of S. pyogenes for each strain was counted for at least 50 buccal cells.

[7] = ampicillin 1 mg/ml to 0.015 mg/ml, polyphenol oxidase 1128 to 17.5 units/ml, asparaginase 20 to 0.31 units/ml, data not shown

B1: asparaginase: enzyme that catalyzes hydrolysis of the side chain amide group of asparagine to a carboxyl group; E. coli asparaginase (protein, UniProt P00805 23-348, looked up)
L-asparaginase 2: LPNITILATGGTIAGGGDSATKSNYTVGKVGVENLVNAVPQLKDIANVKGEQVVNIGSQDMNDNVWLTLAKKINTDCDKTDGFVITHGTDTMEETAYFLDLTVKCDKPVVMVGAMRPSTSMSADGPFNLYNAVVTAADKASANRGVLVVMNDTVLDGRDVTKTNTTDVATFKSVNYGPLGYIHNGKIDYQRTPARKHTSDTPFDVSKLNELPKVGIVYNYANASDLPAKALVDAGYDGIVSAGVGNGNLYKSVFDTLATAAKTGTAVVRSSRVPTGATTQDAEVDDAKYGFVASGTLNPQKARVLLQLALTQTKDPQQIQQIFNQY
[1]
  binding to the mannose receptor: reduced binding
[2]
  binding by the glucosyltransferase to high molecular weight dextrans: reduced binding
[2]; not shown
  activity gel (hydrolysis of sucrose following renaturation of an SDS-PAGE gel): loss of activity
  glucan binding, enhanced chemiluminescence gel: loss of glucan binding
[3]
  inhibition of growth of two strains of E. coli: did not significantly inhibit growth
[3]; [7]
  inhibition of growth of P-fimbriated E. coli: Neither polyphenol oxidase (1128 units/ml to 17.5 units/ml) or asparaginase (20 units/ml to 0.31 units/ml) concentrations tested were able to inhibit the growth
  inhibition of growth of type 1-fimbriated E. coli: Neither polyphenol oxidase (1128 units/ml to 17.5 units/ml) or asparaginase (20 units/ml to 0.31 units/ml) concentrations tested were able to inhibit the growth
S. pyogenes [4]; asparaginase 300 μg/OD, three hours
  binding of bacteria to buccal cells: reduced binding
S. pyogenes [4]; equivalent amount
  reduction in adhesion compared with polyphenol oxidase: greater reduction in adhesion than an equivalent amount of polyphenol oxidase
F. nucleatum; dilution 1/2
  Hemagglutination: +
F. nucleatum; dilution 1/8
  Hemagglutination: +
F. nucleatum; dilution 1/16
  Hemagglutination: +
F. nucleatum; dilution 1/32
  Hemagglutination: +
F. nucleatum; dilution 1/64
  Hemagglutination: +
F. nucleatum; dilution 1/128
  Hemagglutination: −
F. nucleatum; dilution 1/256
  Hemagglutination: −
F. nucleatum; dilution 1/512
  Hemagglutination: −
Proteus vulgaris
  inhibition of growth of Proteus vulgaris: did not significantly inhibit growth
S. pyogenes [5]
  inhibition of growth of S. pyogenes: did not significantly inhibit growth
Klebsiella pneumoniae
  inhibition of growth of Klebsiella pneumoniae: did not significantly inhibit growth
S. pyogenes [6]; Strain M4, asparaginase 100 U/ml
  Percent Inhibition: 62%
S. pyogenes [6]; Strain M4, asparaginase 100 U/ml, untreated 183
  # S. pyogenes buccal cell, Asparaginase (100 U/ml): 69
S. pyogenes [6]; Strain M12 AC, asparaginase 100 U/ml
  Percent Inhibition: 53%
S. pyogenes [6]; Strain M12 AC, asparaginase 100 U/ml, untreated 191
  # S. pyogenes buccal cell, Asparaginase (100 U/ml): 89
S. pyogenes [6]; Strain M14, asparaginase 100 U/ml
  Percent Inhibition: 43%
S. pyogenes [6]; Strain M14, asparaginase 100 U/ml, untreated 183
  # S. pyogenes buccal cell, Asparaginase (100 U/ml): 105
S. pyogenes [6]; Strain M14, asparaginase, third line of the strain (line of polyphenol oxidase 300), own concentration not given
  Percent Inhibition: 47%
S. pyogenes [6]; Strain M14, asparaginase, third line of the strain (line of polyphenol oxidase 300), own concentration not given, untreated 183
  # S. pyogenes buccal cell, Asparaginase (100 U/ml): 77
S. pyogenes [6]; Strain M15 Lowe, asparaginase 100 U/ml
  Percent Inhibition: 23%
S. pyogenes [6]; Strain M15 Lowe, asparaginase 100 U/ml, untreated 120
  # S. pyogenes buccal cell, Asparaginase (100 U/ml): 93
S. pyogenes [6]; Strain M24, asparaginase 100 U/ml
  Percent Inhibition: 61%
S. pyogenes [6]; Strain M24, asparaginase 100 U/ml, untreated 142
  # S. pyogenes buccal cell, Asparaginase (100 U/ml): 55
S. pyogenes [6]; Strain M24 VAN, asparaginase 100 U/ml
  Percent Inhibition: 48%
S. pyogenes [6]; Strain M24 VAN, asparaginase 100 U/ml, untreated 131
  # S. pyogenes buccal cell, Asparaginase (100 U/ml): 68
S. pyogenes [6]; Strain M+, asparaginase 100 U/ml
  Percent Inhibition: 64%
S. pyogenes [6]; Strain M+, asparaginase 100 U/ml, untreated 148
  # S. pyogenes buccal cell, Asparaginase (100 U/ml): 53
